Data from publication PMC10397247.
Values belong to the binder of their own block, whether it stands above or below them.

Assays:
[1] = biological target: T1, 4H3606-bA; test: two-hybrid library CCNG1;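 also: natural log of median RNA to DNA barcode read ratio; higher means stronger binding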
T1 chain: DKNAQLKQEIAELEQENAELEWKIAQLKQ

[2] = biological target: T2, 4H331-bA; test: two-hybrid library CCNG1;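 also: natural log of median RNA to DNA barcode read ratio; higher means stronger binding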
T2 chain: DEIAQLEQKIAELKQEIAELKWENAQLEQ

[3] = biological target: T3, 4H967-bA; test: two-hybrid library CCNG1;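 also: natural log of median RNA to DNA barcode read ratio; higher means stronger binding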
T3 chain: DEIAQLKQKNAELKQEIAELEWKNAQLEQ

[4] = biological target: T4, 4H3189-bA; test: two-hybrid library CCNG1;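 also: natural log of median RNA to DNA barcode read ratio; higher means stronger binding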
T4 chain: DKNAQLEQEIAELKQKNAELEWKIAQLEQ

[5] = biological target: T5, P4A-bS; test: two-hybrid library CCNG1;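 also: natural log of median RNA to DNA barcode read ratio; higher means stronger binding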
T5 chain: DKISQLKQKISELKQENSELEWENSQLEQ

[6] = biological target: T6, 4H568-bA; test: two-hybrid library CCNG1;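 also: natural log of median RNA to DNA barcode read ratio; higher means stronger binding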
T6 chain: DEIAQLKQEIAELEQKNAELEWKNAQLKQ

[7] = biological target: T7, 4H3354-bA; test: two-hybrid library CCNG1
T7 chain: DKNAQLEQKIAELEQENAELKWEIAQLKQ

[8] = biological target: T8, 4H797-bA; test: two-hybrid library CCNG1
T8 chain: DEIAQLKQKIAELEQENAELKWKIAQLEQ

[9] = biological target: T9, 4H3782-bA; test: two-hybrid library CCNG1
T9 chain: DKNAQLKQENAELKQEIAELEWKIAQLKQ

[10] = biological target: T10, 4H754-bA; test: two-hybrid library CCNG1
T10 chain: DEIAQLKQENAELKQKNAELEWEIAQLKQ

[11] = biological target: T11, 4H4001-bA; test: two-hybrid library CCNG1
T11 chain: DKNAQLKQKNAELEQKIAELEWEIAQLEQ

[12] = biological target: T12, 4H3843-bA; test: two-hybrid library CCNG1
T12 chain: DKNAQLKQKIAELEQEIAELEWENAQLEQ

[13] = biological target: T13, 4H3427-bA; test: two-hybrid library CCNG1
T13 chain: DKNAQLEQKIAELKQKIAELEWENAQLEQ

[14] = biological target: T14, 4H454-bA; test: two-hybrid library CCNG1
T14 chain: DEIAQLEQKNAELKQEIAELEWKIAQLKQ

[15] = biological target: T15, 4H462-bA; test: two-hybrid library CCNG1
T15 chain: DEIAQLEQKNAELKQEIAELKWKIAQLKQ

[16] = biological target: T16, 4H2667-bA; test: two-hybrid library CCNG1
T16 chain: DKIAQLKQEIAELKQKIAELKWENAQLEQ

[17] = biological target: T17, 4H908-bA; test: two-hybrid library CCNG1
T17 chain: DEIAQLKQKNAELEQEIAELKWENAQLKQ

[18] = biological target: T18, 4H607-bA; test: two-hybrid library CCNG1
T18 chain: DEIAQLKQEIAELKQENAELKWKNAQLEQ

[19] = biological target: T19, 4H72-bA; test: two-hybrid library CCNG1
T19 chain: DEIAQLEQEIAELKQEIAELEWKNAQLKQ

[20] = biological target: T20, 4H338-bA; test: two-hybrid library CCNG1
T20 chain: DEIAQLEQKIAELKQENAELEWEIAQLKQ

[21] = biological target: T21, 4H2697-bA; test: two-hybrid library CCNG1
T21 chain: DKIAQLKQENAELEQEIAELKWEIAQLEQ

[22] = biological target: T22, 4H883-bA; test: two-hybrid library CCNG1
T22 chain: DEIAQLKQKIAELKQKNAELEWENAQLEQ

[23] = biological target: T23, 4H3185-bA; test: two-hybrid library CCNG1
T23 chain: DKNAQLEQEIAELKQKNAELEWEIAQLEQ

[24] = biological target: T24, 4H918-bA; test: two-hybrid library CCNG1
T24 chain: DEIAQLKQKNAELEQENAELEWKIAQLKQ

[25] = biological target: T25, 4H687-bA; test: two-hybrid library CCNG1
T25 chain: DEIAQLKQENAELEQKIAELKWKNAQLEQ

[26] = biological target: T26, 4H2729-bA; test: two-hybrid library CCNG1
T26 chain: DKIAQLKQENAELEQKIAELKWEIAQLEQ

[27] = biological target: T27, 4H3297-bA; test: two-hybrid library CCNG1
T27 chain: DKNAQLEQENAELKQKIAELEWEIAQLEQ

[28] = biological target: T28, 4H3926-bH; test: two-hybrid library CCNG1
T28 chain: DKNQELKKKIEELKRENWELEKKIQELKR

[29] = biological target: T29, 4H717-bA; test: two-hybrid library CCNG1
T29 chain: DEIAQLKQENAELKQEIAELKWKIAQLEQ

[30] = biological target: T30, 4H3855-bA; test: two-hybrid library CCNG1
T30 chain: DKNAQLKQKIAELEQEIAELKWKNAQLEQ

[31] = biological target: T31, 4H953-bA; test: two-hybrid library CCNG1
T31 chain: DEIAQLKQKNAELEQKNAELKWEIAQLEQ

[32] = biological target: T32, 4H3112-bA; test: two-hybrid library CCNG1
T32 chain: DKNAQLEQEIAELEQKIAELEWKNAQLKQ

[33] = biological target: T33, 4H370-bA; test: two-hybrid library CCNG1
T33 chain: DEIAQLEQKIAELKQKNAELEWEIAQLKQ

[34] = biological target: T34, P7A-bN; test: two-hybrid library CCNG1
T34 chain: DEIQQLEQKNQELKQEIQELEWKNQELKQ

[35] = biological target: T35, P9A-bN; test: two-hybrid library CCNG1
T35 chain: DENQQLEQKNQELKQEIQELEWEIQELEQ

[36] = biological target: T36, P4A-bN; test: two-hybrid library CCNG1
T36 chain: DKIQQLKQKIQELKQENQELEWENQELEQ

[37] = biological target: T37, P6A-bN; test: two-hybrid library CCNG1
T37 chain: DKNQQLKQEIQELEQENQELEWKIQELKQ

[38] = biological target: T38, P8A-bN; test: two-hybrid library CCNG1
T38 chain: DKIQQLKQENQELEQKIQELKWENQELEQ

[39] = biological target: T39, 4H662-AA; test: two-hybrid library CCmax; details: mean of both orientations
T39 chain: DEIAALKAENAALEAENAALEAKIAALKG

[40] = biological target: T40, 4H2935-AA; test: two-hybrid library CCmax; details: mean of both orientations
T40 chain: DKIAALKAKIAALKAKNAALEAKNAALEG

[41] = biological target: T41, 4H369-AA; test: two-hybrid library CCmax; details: mean of both orientations
T41 chain: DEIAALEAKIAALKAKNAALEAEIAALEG

[42] = biological target: T42, 4H327-AA; test: two-hybrid library CCmax; details: mean of both orientations
T42 chain: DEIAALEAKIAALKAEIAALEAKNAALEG

[43] = biological target: T43, 4H3605-AA; test: two-hybrid library CCmax; details: mean of both orientations
T43 chain: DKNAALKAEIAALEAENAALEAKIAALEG

[44] = biological target: T44, 4H2614-AA; test: two-hybrid library CCmax; details: mean of both orientations
T44 chain: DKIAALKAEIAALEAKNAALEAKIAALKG

[45] = biological target: T45, 4H3664-AA; test: two-hybrid library CCmax; details: mean of both orientations
T45 chain: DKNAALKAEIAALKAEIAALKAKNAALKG

[46] = biological target: T46, 4H3922-AA; test: two-hybrid library CCmax; details: mean of both orientations
T46 chain: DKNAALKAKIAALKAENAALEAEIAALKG

[47] = biological target: T47, 4H2726-AA; test: two-hybrid library CCmax; details: mean of both orientations
T47 chain: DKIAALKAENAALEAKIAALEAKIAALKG

[48] = biological target: T48, 4H2608-AA; test: two-hybrid library CCmax; details: mean of both orientations
T48 chain: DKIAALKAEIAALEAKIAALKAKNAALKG

[49] = biological target: T49, 4H481-AA; test: two-hybrid library CCmax; details: mean of both orientations
T49 chain: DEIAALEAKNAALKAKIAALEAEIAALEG

[50] = biological target: T50, 4H4033-AA; test: two-hybrid library CCmax; details: mean of both orientations
T50 chain: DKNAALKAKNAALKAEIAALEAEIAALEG

[51] = biological target: T51, 4H2238-AA; test: two-hybrid library CCmax
T51 chain: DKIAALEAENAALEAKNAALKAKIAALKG

[52] = biological target: T52, 4H2536-AA; test: two-hybrid library CCmax; details: mean of both orientations
T52 chain: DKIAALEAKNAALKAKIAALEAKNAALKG

[53] = biological target: T53, 4H2513-AA; test: two-hybrid library CCmax; details: mean of both orientations
T53 chain: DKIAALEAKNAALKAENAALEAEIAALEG

[54] = biological target: T54, 4H55-AA; test: two-hybrid library CCmax; details: mean of both orientations
T54 chain: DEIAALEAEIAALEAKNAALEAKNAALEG

[55] = biological target: T55, 4H3625-AA; test: two-hybrid library CCmax; details: mean of both orientations
T55 chain: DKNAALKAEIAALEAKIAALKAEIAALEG

[56] = biological target: T56, 4H855-bH; test: two-hybrid library CCNG1
T56 chain: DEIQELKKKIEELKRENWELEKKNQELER

[57] = biological target: T57, 4H968-bH; test: two-hybrid library CCNG1
T57 chain: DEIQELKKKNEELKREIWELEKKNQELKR

[58] = biological target: T58, 4H953-bH; test: two-hybrid library CCNG1
T58 chain: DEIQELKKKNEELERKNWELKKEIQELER

[59] = biological target: T59, 4H918-bH; test: two-hybrid library CCNG1
T59 chain: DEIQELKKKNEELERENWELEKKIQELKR

[60] = biological target: T60, P8A-bS; test: two-hybrid library CCNG1
T60 chain: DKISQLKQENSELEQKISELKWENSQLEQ

[61] = biological target: T61, P9A-bS; test: two-hybrid library CCNG1
T61 chain: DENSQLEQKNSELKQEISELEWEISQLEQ

[62] = biological target: T62, P7A-bS; test: two-hybrid library CCNG1
T62 chain: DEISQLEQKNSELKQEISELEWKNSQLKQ

[63] = biological target: T63, P5A-bS; test: two-hybrid library CCNG1
T63 chain: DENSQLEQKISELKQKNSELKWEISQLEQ

[64] = biological target: T64, P6A-bS; test: two-hybrid library CCNG1
T64 chain: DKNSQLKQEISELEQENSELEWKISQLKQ

Binder: DKIQQLKQKIQELKQENQELEWENQELEQ [P4A-bN]
- interaction score [34]: -1.45
- interaction score [35]: -0.681
- interaction score [36]: -1.26
- interaction score [37]: -1.54
- interaction score [38]: -0.841

Binder: DEIQELKKKIEELKRENWELEKKNQELER [4H855-bH]
- interaction score [56]: -0.389
- interaction score [36]: -0.185
- interaction score [57]: 0.133
- interaction score [58]: -1.14
- interaction score [59]: -0.637

Binder: DKISQLKQKISELKQENSELEWENSQLEQ [P4A-bS]
- interaction score [60]: -0.866
- interaction score [5]: -1.08
- interaction score [61]: -2
- interaction score [62]: -0.905
- interaction score [63]: -0.436
- interaction score [64]: -1.51

Second part, the binder after the results:

- interaction score [1]: 0.0163
- interaction score [2]: 0.846
- interaction score [3]: -1.08
- interaction score [4]: -0.909
- interaction score [5]: -1.72
- interaction score [6]: 0.688
- interaction score [7]: -0.643
- interaction score [8]: -1.09
- interaction score [9]: -0.43
- interaction score [10]: -1.06
- interaction score [11]: 1.02
- interaction score [12]: 1.49
- interaction score [13]: 0.719
- interaction score [14]: 1.25
- interaction score [15]: -0.172
- interaction score [16]: 0.263
- interaction score [17]: -0.691
- interaction score [18]: -1.24
- interaction score [19]: 0.976
- interaction score [20]: 0.164
- interaction score [21]: 0.478
- interaction score [22]: -0.985
- interaction score [23]: -0.669
- interaction score [24]: -1.68
- interaction score [25]: -1.37
- interaction score [26]: 0.719
- interaction score [27]: 0.0617
- interaction score [28]: -1.75
- interaction score [29]: -1.61
- interaction score [30]: -0.565
- interaction score [31]: -0.966
- interaction score [32]: 0.96
- interaction score [33]: -0.0583
Binder: DKIAQLKQEIAELKQKIAELKWENAQLEQ [4H2667-bA]

- interaction score [39]: 1.18
- interaction score [40]: -1.18
- interaction score [41]: 2.28
- interaction score [42]: -0.966
- interaction score [43]: -0.657
- interaction score [44]: -1.25
- interaction score [45]: -1.15
- interaction score [46]: 1.59
- interaction score [47]: -0.445
- interaction score [48]: -1.6
- interaction score [49]: 1.84
- interaction score [50]: 1.31
- interaction score [51]: -0.902
- interaction score [52]: -1.01
- interaction score [53]: 2.15
- interaction score [54]: -1.77
- interaction score [55]: -1.18
Binder: DKIAALEAENAALEAKNAALKAKIAALKG [4H2238-AA]
